Laboratory results reported in patent US6379665B1, “Phospholipase D polypeptide and DNA sequences” (Onyx Pharmaceuticals, Inc., priority 1996, dated 2002).

Test system: HL-60 cells
Test: RT-PCR quantification of hPLD1a and hPLD1b during dbcAMP-induced HL-60 cell differentiation
Assay type: cell-based, human
Settings: 0.5 mM dbcAMP
Description: To analyze changes in the levels of hPLD1 a and hPLD1b during HL-60 cell differentiation induced by dcbAMP, HL-60 cells maintained in RPMI-1640 medium supplemented with 10% fetal bovine serum, 100 units/ml penicillin and 100 µg/ml streptomycin in a humidified atmosphere containing 5% CO2, at 37 C. were grown in RPMI-1640 medium without fetal bovine serum for 24 hours. Differentiation was initiated by the addition of 0.5 mM dbcAMP. Levels of PLD1a and PLD1b were quantified by RT-PCR. Total RNA was isolated from the HL-60 cells at the exponential growth stage by the acid guanidine thiocyanate method following the protocol of Chomczynski, Anal. Biochem. 162: 156-62(1992). Two g of RNA was reverse transcribed by using random hexamer mixed primers. The number of amplification cycles were determined to individual primer sets in order to maintain exponential rate of product amplification. Amplified DNA fragments were subjected to electrophoresis on 1.5% agarose gel and visualized by ethidium bromide staining. The intensity of bands was quantified by a densitometer (Atto Densitograph, Tokyo, Japan). Primer A (Forward): nucleotides 1475 through 1491; primer B (reverse) nucleotides 2133 through 2113 of SEQ ID NO: 1. Amplification conditions used were 94 C. for 30 seconds, 60 C. for 1 minute, and 72 C. for 1 minute; 25-27 cycles.

B1: PLD1: purified recombinant mammalian PLD1 (SEQ ID NOS:2 or 5), a/b form not specified (protein, UniProt Q13393 1-1074, looked up)
Phospholipase D1: MSLKNEPRVNTSALQKIAADMSNIIENLDTRELHFEGEEVDYDVSPSDPKIQEVYIPFSAIYNTQGFKEPNIQTYLSGCPIKAQVLEVERFTSTTRVPSINLYTIELTHGEFKWQVKRKFKHFQEFHRELLKYKAFIRIPIPTRRHTFRRQNVREEPREMPSLPRSSENMIREEQFLGRRKQLEDYLTKILKMPMYRNYHATTEFLDISQLSFIHDLGPKGIEGMIMKRSGGHRIPGLNCCGQGRACYRWSKRWLIVKDSFLLYMKPDSGAIAFVLLVDKEFKIKVGKKETETKYGIRIDNLSRTLILKCNSYRHARWWGGAIEEFIQKHGTNFLKDHRFGSYAAIQENALAKWYVNAKGYFEDVANAMEEANEEIFITDWWLSPEIFLKRPVVEGNRWRLDCILKRKAQQGVRIFIMLYKEVELALGINSEYTKRTLMRLHPNIKVMRHPDHVSSTVYLWAHHEKLVIIDQSVAFVGGIDLAYGRWDDNEHRLTDVGSVKRVTSGPSLGSLPPAAMESMESLRLKDKNEPVQNLPIQKSIDDVDSKLKGIGKPRKFSKFSLYKQLHRHHLHDADSISSIDSTSSYFNHYRSHHNLIHGLKPHFKLFHPSSESEQGLTRPHADTGSIRSLQTGVGELHGETRFWHGKDYCNFVFKDWVQLDKPFADFIDRYSTPRMPWHDIASAVHGKAARDVARHFIQRWNFTKIMKSKYRSLSYPFLLPKSQTTAHELRYQVPGSVHANVQLLRSAADWSAGIKYHEESIHAAYVHVIENSRHYIYIENQFFISCADDKVVFNKIGDAIAQRILKAHRENQKYRVYVVIPLLPGFEGDISTGGGNALQAIMHFNYRTMCRGENSILGQLKAELGNQWINYISFCGLRTHAELEGNLVTELIYVHSKLLIADDNTVIIGSANINDRSMLGKRDSEMAVIVQDTETVPSVMDGKEYQAGRFARGLRLQCFRVVLGYLDDPSEDIQDPVSDKFFKEVWVSTAARNATIYDKVFRCLPNDEVHNLIQLRDFINKPVLAKEDPIRAEEELKKIRGFLVQFPFYFLSEESLLPSVGTKEAIVPMEVWT
3 days, RT-PCR
  increase over the 3 day differentiation period: 3-4 fold

B2: hPLD1b: human phospholipase D1b splice variant, approximately 1036 amino acid protein, SEQ ID NO:5 (protein, listed as Homo sapiens)
chain: MSLKNEPRVNTSALQKIAADMSNIIENLDTRELHFEGEEVDYDVSPSDPKIQEVYIPFSAIYNTQGFKEPNIQTYLSGCPIKAQVLEVERFTSTTRVPSINLYTIELTHGEFKWQVKRKFKHFQEFHRELLKYKAFIRIPIPTRRHTFRRQNVREEPREMPSLPRSSENMIREEQFLGRRKQLEDYLTKILKMPMYRNYHATTEFLDISQLSFIHDLGPKGIEGMIMKRSGGHRIPGLNCCGQGRACYRWSKRWLIVKDSFLLYMKPDSGAIAFVLLVDKEFKIKVGKKETETKYGIRIDNLSRTLILKCNSYRHARWWGGAIEEFIQKHGTNFLKDHRFGSYAAIQENALAKWYVNAKGYFEDVANAMEEANEEIFITDWWLSPEIFLKRPVVEGNRWRLDCILKRKAQQGVRIFIMLYKEVELALGINSEYTKRTLMRLHPNIKVMRHPDHVSSTVYLWAHHEKLVIIDQSVAFVGGIDLAYGRWDDNEHRLTDVGSVKRVTSGPSLGSLPPAAMESMESLRLKDKNEPVQNLPIQKSIDDVDSKLKGIGKPRKFSKFSLYKQLHRHHLHDADSISSIDSTSNTGSIRSLQTGVGELHGETRFWHGKDYCNFVFKDWVQLDKPFADFIDRYSTPRMPWHDIASAVHGKAARDVARHFIQRWNFTKIMKSKYRSLSYPFLLPKSQTTAHELRYQVPGSVHANVQLLRSAADWSAGIKYHEESIHAAYVHVIENSRHYIYIENQFFISCADDKVVFNKIGDAIAQRILKAHRENQKYRVYVVIPLLPGFEGDISTGGGNALQAIMHFNYRTMCRGENSILGQLKAELGNQWINYISFCGLRTHAELEGNLVTELIYVHSKLLIADDNTVIIGSANINDRSMLGKRDSEMAVIVQDTETVPSVMDGKEYQAGRFARGLRLQCFRVVLGYLDDPSEDIQDPVSDKFFKEVWVSTAARNATIYDKVFRCLPNDEVHNLIQLRDFINKPVLAKEDPIRAEEELKKIRGFLVQFPFYFLSEESLLPSVGTKEAIVPMEVWT
Day 1, RT-PCR
  increase in level (printed as activity) on day 1: less than 2 fold
Day 2, RT-PCR
  increase in level (printed as activity) on day 2: approximately 3 fold
Day 3, RT-PCR
  increase in level (printed as activity) on day 3: approximately 3.5 fold
